# B1: B23 (also termed nucleophosmin, NPM1) (natural protein, rat (endogenous in PC12), UniProt P13084 1-292, looked up)
# chain: MEDSMDMDMSPLRPQNYLFGCELKADKDYHFKVDNDENEHQLSLRTVSLGAGAKDELHIVEAEAMNYEGSPIKVTLATLKMSVQPTVSLGGFEITPPVVLRLKCGSGPVHISGQHLVAVEEDAESEDEDEEDVKLLGMSGKRSAPGGGNKVPQKKVKLDEDDDEDDEDDEDDEDDDDDDFDEEETEEKVPVKKSVRDTPAKNAQKSNQNGKDLKPSTPRSKGQESFKKQEKTPKTPKGPSSVEDIKAKMQASIEKGGSLPKVEAKFINYVKNCFRMTDQEAIQDLWQWRKSL
# notes: B23 / nucleophosmin, endogenous in PC12 cells, detected with a mouse monoclonal anti-B23 antibody; source: endogenous, PC12 cells (lysate or fixed cells)
# B2: fibrillarin (natural protein, rat (endogenous in PC12), UniProt P22509 1-327, looked up)
# chain: MKPGFSPRGGGFGGRGGFGDRGGRGGGRGGRGGFGGGRGGFGGGGRGRGGGGGGFRGRGGGGGRGGGFQSGGGRGRGGGRGGKRGNQSGKNVMVEPHRHEGVFICRGKEDALVTKNLVPGESVYGEKRVSISEGDDKIEYRAWNPFRSKLAAAILGGVDQIHIKPGAKVLYLGAASGTTVSHVSDIVGPDGLVYAVEFSHRSGRDLINLAKKRTNIIPVIEDARHPHKYRMLIAMVDVIFADVAQPDQTRIVALNAHTFLRNGGHFVISIKANCIDSTASAEAVFASEVKKMQQENMKPQEQLTLEPYERDHAVVVGVYRPPPKAKN
# notes: fibrillarin, endogenous in PC12 cells, detected with a mouse monoclonal anti-fibrillarin antibody; source: endogenous, PC12 cells (lysate or fixed cells)
# B3: UBF (upstream binding factor) (natural protein, rat (endogenous in PC12), UniProt P25977 1-764, looked up)
# chain: MNGEADCPTDLEMAAPKGQDRWSQEDMLTLLECMKNNLPSNDSSKFKTTESHMDWEKVAFKDFSGDMCKLKWVEISNEVRKFRTLTELILDAQEHVKNPYKGKKLKKHPDFPKKPLTPYFRFFMEKRAKYAKLHPEMSNLDLTKILSKKYKELPEKKKMKYIQDFQREKQEFERNLARFREDHPDLIQNAKKSDIPEKPKTPQQLWYTHEKKVYLKVRPDATTKEVKDSLGKQWSQLSDKKRLKWIHKALEQRKEYEEIMRDYIQKHPELNISEEGITKSTLTKAERQLKDKFDGRPTKPPPNSYSLYCAELMANMKDVPSTERMVLCSQQWKLLSQKEKDAYHKKCDQKKKDYEVELLRFLESLPEEEQQRVLGEEKMLNINKKQTTSPASKKPSQEGGKGGSEKPKRPVSAMFIFSEEKRRQLQEERPELSESELTRLLARMWNDLSEKKKAKYKAREAALKAQSERKPGGEREDRGKLPESPKRAEEIWQQSVIGDYLARFKNDRVKALKAMEMTWNNMEKKEKLMWIKKAAEDQKRYERELSEMRAPPAATNSSKKMKFQGEPKKPPMNGYQKFSQELLSNGELNHLPLKERMVEIGSRWQRISQSQKEHYKKLAEEQQRQYKVHLDLWVKSLSPQDRAAYKEYISNKRKNMTKLRGPNPKSSRTTLQSKSESEEDDDEEDDDDDDEEEEEDDENGDSSEDGGDSSESSSEDESEDGDENEDDDDDEDDDEDDDEDEDNESEGSSSSSSSSGDSSDSDSN
# notes: source: endogenous, PC12 cells (lysate or fixed cells)
# Target: T1, myosin VI (MVI), endogenous in PC12 cells (rat (endogenous in PC12), UniProt D4A5I9 1-1285)
# T1 construct: myosin VI heavy chain, endogenous in PC12 cells; also called unconventional myosin VI; source: endogenous, PC12 cells (lysate or fixed cells)
# T1 sequence (D4A5I9 entry or part of it): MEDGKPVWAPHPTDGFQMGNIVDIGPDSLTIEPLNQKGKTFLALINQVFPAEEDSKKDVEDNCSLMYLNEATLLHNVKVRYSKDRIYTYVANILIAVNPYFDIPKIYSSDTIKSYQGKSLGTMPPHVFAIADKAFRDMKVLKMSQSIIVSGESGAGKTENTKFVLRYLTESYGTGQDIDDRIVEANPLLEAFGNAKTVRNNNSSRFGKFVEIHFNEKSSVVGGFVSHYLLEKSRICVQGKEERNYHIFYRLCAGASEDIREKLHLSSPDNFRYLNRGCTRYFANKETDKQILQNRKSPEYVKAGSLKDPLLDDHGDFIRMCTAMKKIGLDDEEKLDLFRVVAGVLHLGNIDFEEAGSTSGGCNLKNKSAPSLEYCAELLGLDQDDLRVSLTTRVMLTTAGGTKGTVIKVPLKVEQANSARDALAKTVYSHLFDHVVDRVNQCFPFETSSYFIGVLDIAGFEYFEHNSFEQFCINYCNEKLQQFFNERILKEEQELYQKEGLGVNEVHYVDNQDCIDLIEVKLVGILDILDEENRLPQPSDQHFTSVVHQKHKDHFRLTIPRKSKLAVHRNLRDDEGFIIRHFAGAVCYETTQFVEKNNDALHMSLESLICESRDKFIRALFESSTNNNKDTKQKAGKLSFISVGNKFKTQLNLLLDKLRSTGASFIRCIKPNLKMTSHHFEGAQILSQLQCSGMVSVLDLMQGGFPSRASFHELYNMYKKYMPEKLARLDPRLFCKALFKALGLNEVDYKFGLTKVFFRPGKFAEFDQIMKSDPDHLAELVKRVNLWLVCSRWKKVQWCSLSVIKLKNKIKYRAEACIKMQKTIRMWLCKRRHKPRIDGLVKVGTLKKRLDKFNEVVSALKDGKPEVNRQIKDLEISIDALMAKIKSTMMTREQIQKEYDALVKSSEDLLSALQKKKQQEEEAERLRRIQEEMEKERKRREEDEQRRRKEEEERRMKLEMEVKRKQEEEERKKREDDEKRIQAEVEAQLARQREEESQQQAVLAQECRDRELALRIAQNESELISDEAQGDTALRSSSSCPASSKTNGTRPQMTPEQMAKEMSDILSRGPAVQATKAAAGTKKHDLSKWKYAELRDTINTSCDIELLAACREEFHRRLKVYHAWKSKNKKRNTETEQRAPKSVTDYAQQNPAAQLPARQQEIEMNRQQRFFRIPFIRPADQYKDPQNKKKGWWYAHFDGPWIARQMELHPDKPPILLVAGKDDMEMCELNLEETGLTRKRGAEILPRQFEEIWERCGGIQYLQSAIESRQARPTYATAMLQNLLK
# Experiment: proximity ligation; Duolink in situ PLA on fixed PC12 cells, rabbit anti-MVI with mouse monoclonal antibodies to the partner; foci counted per nucleus
# Conditions: partners not purified
row,fraction of PLA foci-positive nuclei [%],Binder
1,~57,B1
2,~65,B2
3,~36,B3
